This is an account of results in PMC9977887, “Crocodile defensin (CpoBD13) antifungal activity via pH-dependent phospholipid targeting and membrane disruption” (Nature Communications, 2023).

For orientation: IC50 means the concentration at which inhibition is half-maximal. The term stoichiometry N denotes a count of units in the complex or per binding partner.

For series [1], the target named is PC:PA liposomes (95:5 molar ratio PC:PA). Put plainly: liposome pulldown. Particulars: 1 µg peptide, 95:5 molar ratio PC:PA, read off a plot.
For series [2], the target named is PC only liposomes. Put plainly: liposome pulldown. Particulars: 1 µg peptide, PC only, read off a plot.
Series [3] in a line: Calcein-encapsulated liposome lysis assay. Format: biochemical. Here is the method:
(§1) Liposomes were prepared using natural chicken egg L-α-phophatidylcholine and L-α-phosphatidic acid dissolved in chloroform (Avanti Polar Lipids), and liposome pulldowns (at pH 7.4) and calcein-encapsulated liposome lysis assays were performed as previously described. For liposome pulldowns performed at pH 5.5, the same protocol was used with minor variations. The desiccated lipid films were resuspended in 20 mM MES pH 7.4 and were washed in the same buffer during the centrifugation process. After the final wash step, the liposome pellets were resuspended in 20 mM MES pH 5.5 and incubated with CpoBD13 or mutants thereof (also prepared in the same acidic buffer).

For series [4], the system named is C. albicans ATCC 10231. Put plainly: Fungal growth inhibition assay. It is filed as cell-based, Candida albicans. Particulars: 24 h; for IC50: unit not in table, µM, read-out: IC50. As to the method: For fungal growth assays, overnight cultures of C. albicans ATCC 10231 cells (yeast peptone dextrose broth, 30°C, shaking at 160 rpm) were pelleted (2000 g, 5 min), washed once in 0.5× potato dextrose broth (BD Biosciences, Franklin Lakes, NJ) and finally resuspended in the same media. Cells were seeded onto a 96-well plate (400 cells, 50 µL) and treated with an equal volume of varying concentrations of defensin in 0.5× potato dextrose broth. After incubating the samples (24 h, 30 °C), the plates were shaken to distribute the cells and growth was determined by performing a 9-well scan (600 nm) using a Spectramax M5e microplate reader (Molecular Devices, San Jose, CA). For assays testing defensin salt tolerance, C. albicans cells were instead resuspended in 1x potato dextrose broth and treated with an equal volume of CpoBD13 + NaCl solution at their intended concentrations. Propidium iodide (PI) uptake assays were performed by preparing the cells as per the standard growth inhibition assay however they were instead seeded onto a U-bottom 96-well plate (50,000 cells, 25 µL). […] For PI uptake experiments performed at a specific pH, the same method was followed with the exception that cells were resuspended in 1× potato dextrose broth while defensin titrations were diluted in 40 mM MES buffer at the intended pH. An example PI uptake gating strategy is presented in Supplementary Fig. 1d.

Series [5] is described as follows: Liposome pulldown. Format: binding. Particulars: 1 µg defensin; for Fraction of total protein (%), bound fraction: pH 5.5 (20 mM MES); for Fraction of total protein (%), Bound: pH 7.4. As to the method:
as §1

Series [6] deals with the molecule itself. Put plainly: cross-linking; BS(PEG)5 cross-linker; CpoBD13 (1 mg/mL stock) with 0 or 23 µM phosphatidic acid (08:0 PA; 0 or 0.092 mM stock), 20 mM HEPES pH 7.1, 30 min; SDS-PAGE and colloidal Coomassie.
Series [7] concerns the molecule itself. Put plainly: cross-linking; BS(PEG)5 cross-linker; CpoBD13 or mutant (1 mg/mL stock) with 115 µM phosphatidic acid (08:0 PA; 0.46 mM stock), 20 mM HEPES pH 7.1, 30 min; SDS-PAGE and colloidal Coomassie.
Where [8] appears, read: PC:PA 95:5 liposomes, replicate 1.
Setting [9] is: PC:PA 95:5 liposomes, replicate 2.
[10] abbreviates: PC:PA 95:5 liposomes, replicate 3.

Where two headings read alike, the source gives them in different places. A value given as a limit tells only on which side of the number the result lay.

For “Crocodylus porosus β-defensin 13 (CpoBD13) (from UniProt A0A7G6KN55) R17A”, the response (% (fraction of total)) in series [1] (pH 5.5, parent: est. 88) is 87; in series [1] (pH 7.4, parent: est. 43), 26; in series [2] (pH 5.5, parent: est. 20) it was 22; in series [2] (pH 7.4, parent: est. 15) it was 13.
The like results for “Crocodylus porosus β-defensin 13 (CpoBD13) (from UniProt A0A7G6KN55) H21A” were, in that order, 69, 38, 15 and 23.
For “CpoBD13 (H35A): CpoBD13 point mutant H35A”, the “Lysis (%)” value is on record as 59.2077% in series [3] (PC liposomes, replicate 1); 47.882% in series [3] (PC liposomes, replicate 2); 48.469% in series [3] (PC liposomes, replicate 3); 63.0445% in series [3] (PC:PA liposomes, replicate 1); 68.1197% in series [3] (PC:PA liposomes, replicate 2); 58.6174% in series [3] (PC:PA liposomes, replicate 3). Also, in series [4] (IC50 comparison, two-tailed unpaired t test), the “fungal growth inhibition activity compared to the wild type” value was “No significant differences”. Further, the IC50 in series [4] (Replicate 1) was determined as 4.14 µM; in series [4] (Replicate 2), 4.17 µM; in series [4] (Replicate 3) it was 4.2 µM. The “Fraction of total protein (%), bound fraction” value is 23.8871% in series [5] (PC only liposomes, replicate 1); 10.4017% in series [5] (PC only liposomes, replicate 2); 20.2373% in series [5] (PC only liposomes, replicate 3); 106.585% in series [5] (setting [8]); 65.0801% in series [5] (setting [9]); 97.4485% in series [5] (setting [10]). For the same molecule, the “Fraction of total protein (%), Bound” value in series [5] (PC only liposomes, replicate 1) stood at 14.047%; in series [5] (PC only liposomes, replicate 2) it was 12.1176%; in series [5] (PC only liposomes, replicate 3), 23.9918%; in series [5] (setting [8]), 42.5181%; in series [5] (setting [9]), 53.6354%; in series [5] (setting [10]) it was 32.306%.
For “Crocodylus porosus β-defensin 13 (CpoBD13) (from UniProt A0A7G6KN55) H35A”, the response (% (fraction of total)) in series [1] (pH 5.5, parent: est. 88) was 90; in series [1] (pH 7.4, parent: est. 43), 42; in series [2] (pH 5.5, parent: est. 20), 18; in series [2] (pH 7.4, parent: est. 15), 15.
As for “Crocodylus porosus β-defensin 13 (CpoBD13) (from UniProt A0A7G6KN55) H33A”, the response (% (fraction of total)) in series [1] (pH 5.5, parent: est. 88) was 78; in series [1] (pH 7.4, parent: est. 43) it was 38; in series [2] (pH 5.5, parent: est. 20) it was 20; in series [2] (pH 7.4, parent: est. 15), 18.
The like results for “Crocodylus porosus β-defensin 13 (CpoBD13) (from UniProt A0A7G6KN55) R9A” were, in that order, 80, 17, 34 and 10.

B1: Crocodylus porosus β-defensin 13 (CpoBD13) (peptide, UniProt A0A7G6KN55 22-61, looked up)
chain: NGSYYSTLQCRNNHGHCRRLCFHGEQWIGNCNGRHQHCCK
notes: Crocodylus porosus β-defensin 13, mature defensin domain (nucleotides 142-255 of XM_019537183.1, limits set with SignalP); 114 nucleotides would give 38 residues; Three disulphide bonds; also called wild type CpoBD13; saltwater crocodile defensin; source: Pichia pastoris (pPIC9 vector), purified by cation exchange chromatography
In the case of B1, the “stoichiometry N” value is 2 in series [6] and at most 5 in series [7].
